Literature values, collected in article PMC6873222.

Key:
SIRPG ECD (Homo sapiens) = SIRPG ECD (Homo sapiens) (UniProt Q9P1W8)
CD55 ECD (Homo sapiens) = CD55 ECD (Homo sapiens) (UniProt P08174)
Chain of UniProt P08174 (P08174 35-353): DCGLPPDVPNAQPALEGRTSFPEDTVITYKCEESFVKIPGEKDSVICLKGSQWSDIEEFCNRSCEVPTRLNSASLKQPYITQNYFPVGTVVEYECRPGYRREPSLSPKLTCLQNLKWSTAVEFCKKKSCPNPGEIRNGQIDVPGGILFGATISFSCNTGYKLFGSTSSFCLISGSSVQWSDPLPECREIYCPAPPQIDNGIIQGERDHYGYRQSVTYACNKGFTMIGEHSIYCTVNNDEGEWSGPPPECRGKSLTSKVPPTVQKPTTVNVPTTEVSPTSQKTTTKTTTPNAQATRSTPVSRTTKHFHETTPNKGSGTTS

Chain of UniProt Q9P1W8 (Q9P1W8 29-360): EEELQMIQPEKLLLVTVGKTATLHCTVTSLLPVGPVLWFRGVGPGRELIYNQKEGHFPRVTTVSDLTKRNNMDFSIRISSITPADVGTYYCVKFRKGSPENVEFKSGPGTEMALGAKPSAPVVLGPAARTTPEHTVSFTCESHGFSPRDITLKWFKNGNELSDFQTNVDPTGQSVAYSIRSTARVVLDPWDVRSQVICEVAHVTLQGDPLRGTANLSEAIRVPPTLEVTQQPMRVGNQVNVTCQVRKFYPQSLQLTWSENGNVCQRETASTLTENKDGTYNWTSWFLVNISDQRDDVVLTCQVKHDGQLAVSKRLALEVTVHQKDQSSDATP

For CD47 ECD (from UniProt Q08722), the Kd (SIRPG ECD (Homo sapiens)) is listed as 23 µM.

In the case of CD97 ECD (from UniProt P48960), the Kd (CD55 ECD (Homo sapiens)) is given as > 80 µM.
